Experimental data reported in patent EP4796129A1 (Celltrion, Inc., dated 2025).
Where a chain is given by its changes, count along the chain named.

T1: recombinant human Nectin-4 protein (human, UniProt Q96NY8 32-349)
T1 construct: Recombinant protein; construct not described
T1 sequence (looked up): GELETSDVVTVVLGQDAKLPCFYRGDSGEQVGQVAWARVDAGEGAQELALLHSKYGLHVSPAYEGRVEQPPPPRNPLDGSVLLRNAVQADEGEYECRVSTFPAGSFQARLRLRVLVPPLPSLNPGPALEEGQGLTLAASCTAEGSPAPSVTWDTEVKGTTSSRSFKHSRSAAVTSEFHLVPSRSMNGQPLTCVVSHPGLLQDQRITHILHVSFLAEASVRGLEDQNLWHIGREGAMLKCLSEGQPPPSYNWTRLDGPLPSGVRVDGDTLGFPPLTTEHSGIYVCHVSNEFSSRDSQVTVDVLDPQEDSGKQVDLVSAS

T2: recombinant rat Nectin-4 protein (rat, UniProt D3ZET1 31-348)
T2 construct: Recombinant protein; construct not described
T2 sequence: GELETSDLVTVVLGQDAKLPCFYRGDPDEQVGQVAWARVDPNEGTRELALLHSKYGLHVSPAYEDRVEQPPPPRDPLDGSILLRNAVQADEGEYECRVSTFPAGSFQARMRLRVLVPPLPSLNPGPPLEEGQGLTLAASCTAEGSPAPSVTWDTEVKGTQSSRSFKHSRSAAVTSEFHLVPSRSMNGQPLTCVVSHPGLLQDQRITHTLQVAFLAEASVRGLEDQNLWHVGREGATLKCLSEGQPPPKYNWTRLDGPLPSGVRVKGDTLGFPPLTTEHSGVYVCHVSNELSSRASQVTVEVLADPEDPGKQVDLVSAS

T3: recombinant cynomolgus monkey Nectin-4 protein (cynomolgus monkey, UniProt A0A2K5WES1 32-349)
T3 construct: Recombinant protein; construct not described; also called cynomolgus Nectin-4
T3 sequence: T1 sequence (looked up) with V39A, I230V

T4: recombinant human Nectin-2 (human, UniProt Q92692 32-360, limits assumed)
T4 construct: Recombinant protein; construct not described
T4 sequence (looked up): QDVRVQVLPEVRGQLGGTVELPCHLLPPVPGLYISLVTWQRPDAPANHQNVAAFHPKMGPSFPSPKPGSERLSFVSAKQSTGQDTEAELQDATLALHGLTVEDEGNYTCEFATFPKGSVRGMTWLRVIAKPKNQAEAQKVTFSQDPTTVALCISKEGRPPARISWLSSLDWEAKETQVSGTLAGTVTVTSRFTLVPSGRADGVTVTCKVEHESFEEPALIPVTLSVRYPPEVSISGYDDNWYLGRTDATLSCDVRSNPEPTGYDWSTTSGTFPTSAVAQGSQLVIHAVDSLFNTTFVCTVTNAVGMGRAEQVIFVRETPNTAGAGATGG

T5: recombinant human Nectin-1 (human, UniProt Q15223 31-334, limits assumed)
T5 construct: Recombinant protein; construct not described
T5 sequence (looked up): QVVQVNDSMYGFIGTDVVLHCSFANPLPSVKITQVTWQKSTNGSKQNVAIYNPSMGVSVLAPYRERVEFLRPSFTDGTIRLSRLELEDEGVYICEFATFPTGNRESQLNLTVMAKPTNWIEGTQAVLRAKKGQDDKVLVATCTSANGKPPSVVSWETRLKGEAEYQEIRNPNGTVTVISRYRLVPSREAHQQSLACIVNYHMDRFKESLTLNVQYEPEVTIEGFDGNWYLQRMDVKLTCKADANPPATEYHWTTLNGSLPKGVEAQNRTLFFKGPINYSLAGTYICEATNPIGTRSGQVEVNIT

B1: Enfortumab-PBX-7016 ADC (antibody, V domains shown)
VH: EVQLVESGGGLVQPGGSLRLSCAASGFTFSSYNMNWVRQAPGKGLEWVSYISSSSSTIYYADSVKGRFTISRDNAKNSLSLQMNSLRDEDTAVYYCARAYYYGMDVWGQGTTVTVSS
VL: DIQMTQSPSSVSASVGDRVTITCRASQGISGWLAWYQQKPGKAPKFLIYAASTLQSGVPSRFSGSGSGTDFTLTISSLQPEDFATYYCQQANSFPPTFGGGTKVEIKR
modifications: mc-GGFG-PBX-7016 linker-payload on cysteine thiols freed by TCEP reduction of the disulfides; positions not given
B2: Enfortumab mAb (antibody, human IgG1, kappa, V domains shown)
VH: B1 VH
VL: B1 VL
notes: Naked antibody (source: Abinvivo); also called anti-Nectin-4 antibody (Enfortumab); anti-Nectin4 mAb

Key:
[1] = biological target: T1, recombinant human Nectin-4 protein; test: ELISA on recombinant protein
[2] = biological target: T2, recombinant rat Nectin-4 protein; test: ELISA on recombinant protein
[3] = biological target: T3, recombinant cynomolgus monkey Nectin-4 …; test: ELISA on recombinant protein
[4] = biological target: T1, recombinant human Nectin-4 protein; test: BLI, antibody as loading sample
[5] = biological target: T2, recombinant rat Nectin-4 protein; test: BLI, antibody as loading sample
[6] = biological target: T3, recombinant cynomolgus monkey Nectin-4 …; test: BLI, antibody as loading sample
[7] = biological target: T4, recombinant human Nectin-2; test: ELISA
[8] = biological target: T5, recombinant human Nectin-1; test: ELISA
[9] = biological target: T6, recombinant human Nectin-3 (human, UniProt Q9NQS3 58-404, limits assumed); test: ELISA
T6 construct: Recombinant protein; construct not described
T6 sequence (Q9NQS3 58-404 limits assumed): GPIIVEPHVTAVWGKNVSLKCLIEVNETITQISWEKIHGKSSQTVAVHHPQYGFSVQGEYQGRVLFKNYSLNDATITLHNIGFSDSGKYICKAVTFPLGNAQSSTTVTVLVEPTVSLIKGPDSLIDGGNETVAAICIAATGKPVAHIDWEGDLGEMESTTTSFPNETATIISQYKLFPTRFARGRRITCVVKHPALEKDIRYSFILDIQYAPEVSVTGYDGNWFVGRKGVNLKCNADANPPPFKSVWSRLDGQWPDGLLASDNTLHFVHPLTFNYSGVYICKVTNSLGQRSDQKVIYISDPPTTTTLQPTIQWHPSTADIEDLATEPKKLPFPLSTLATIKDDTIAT

Row | Binder | EC50 [1] [ng/mL] | EC50 [2] [ng/mL] | EC50 [3] [ng/mL] | Kd [4] [nM] | Response [4] | Kd [5] [nM] | Response [5] | Kd [6] [nM] | Response [6] | binding result [7] | binding result [8] | binding result [9] | koff [4] [s⁻¹] | kon [4] [M⁻¹ s⁻¹] | koff [5] [s⁻¹] | kon [5] [M⁻¹ s⁻¹] | koff [6] [s⁻¹] | kon [6] [M⁻¹ s⁻¹]
1 | B1 | 8.31 | 9.88 | 7.94 | 2.89 | 0.621 | 3.2 | 0.511 | 1.78 | 0.643 | no binding | no binding | no binding |  |  |  |  |  | 
2 | B2 | 8.38 | 9.63 | 8.43 | 5.02 | 0.681 | 3.96 | 0.606 | 6.05 | 0.67 | no binding | no binding | no binding | 0.00136 | 271000 | 0.00149 | 376000 | 0.00191 | 316000
